# Reference: patent US20150361150A1
# Target: tyrosine-protein kinase KIT on the surface of human KIT+ GIST cell lines (GIST 882, GIST 48) (human) (UniProt P10721)
# Experiment: cell-based or functional assay
# UniProt P10721, sequence (P10721 26-976): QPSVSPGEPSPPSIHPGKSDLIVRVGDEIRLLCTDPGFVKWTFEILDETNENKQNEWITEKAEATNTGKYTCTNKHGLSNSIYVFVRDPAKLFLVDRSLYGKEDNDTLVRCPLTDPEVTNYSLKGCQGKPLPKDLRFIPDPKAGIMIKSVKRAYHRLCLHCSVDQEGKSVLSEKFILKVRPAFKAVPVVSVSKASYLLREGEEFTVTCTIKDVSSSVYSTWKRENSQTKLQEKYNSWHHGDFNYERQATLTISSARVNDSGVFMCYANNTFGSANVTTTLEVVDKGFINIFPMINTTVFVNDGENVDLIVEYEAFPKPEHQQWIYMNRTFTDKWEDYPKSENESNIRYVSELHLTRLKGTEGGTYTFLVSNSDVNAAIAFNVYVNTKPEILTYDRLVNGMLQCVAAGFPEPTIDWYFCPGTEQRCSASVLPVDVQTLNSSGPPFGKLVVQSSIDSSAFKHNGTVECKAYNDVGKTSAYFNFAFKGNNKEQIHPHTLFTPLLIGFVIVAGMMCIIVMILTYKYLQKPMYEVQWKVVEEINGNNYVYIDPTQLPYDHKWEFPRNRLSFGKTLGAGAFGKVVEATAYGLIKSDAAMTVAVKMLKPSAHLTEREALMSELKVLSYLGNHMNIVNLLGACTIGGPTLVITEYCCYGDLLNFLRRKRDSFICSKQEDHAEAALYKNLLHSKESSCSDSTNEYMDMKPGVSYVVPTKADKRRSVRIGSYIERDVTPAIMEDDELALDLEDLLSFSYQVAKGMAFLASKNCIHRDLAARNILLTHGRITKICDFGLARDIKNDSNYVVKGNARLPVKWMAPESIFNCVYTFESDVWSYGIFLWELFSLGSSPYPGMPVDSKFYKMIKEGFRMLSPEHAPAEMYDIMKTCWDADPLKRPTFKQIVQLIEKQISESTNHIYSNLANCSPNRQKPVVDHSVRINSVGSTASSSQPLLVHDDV
row,Substance,percent of designer T cells divided (CFSE dilution) in co-culture with KIT+ GIST882 cells
1,"2^nd generation anti-KIT chimeric immune receptor (extracellular domain of KIT ligand fused to CD28 and CD3 zeta), expressed on human designer T cells",47%
2,"1^st generation anti-KIT chimeric immune receptor (extracellular domain of KIT ligand fused to the CD3 zeta chain), expressed on human designer T cells",39%
